{"source": "the nanobody polyreactivity screen of Harvey et al. (2022)", "data": [{"assay": "yeast display, Sf9 membrane polyspecificity reagent, FACS + sequencing; frameworks hold sequencing errors", "in_short": "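Using colony PCR, genes from sorted yeast display clones were amplified, then sequenced on MiSeq at 2 × 250 and filtered by CDR length. The clones had been stained with 10% biotinylated, detergent-solubilized Sf9 membrane reagent for 1 hour at 4 °C and sorted by FACS into low and high (top ~1%) gates on anti-HA and streptavidin fluorescence. Polyreactivity labels come from the gate of origin.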", "values": [{"sequence": "QVQLVESGGGLVQAGGSLRLSCAASGFIFTGNAMGWYRQAPGKERELVAAITGRGSTYYADSVKGRFTISRDNGKNSVYLQMNSLKPEDTAVYYCAAKRWWQYYWGQGTQVTVSS", "polyreactivity (PSR sort gate)": "high polyreactivity"}, {"sequence": "QVQLVESGGGLVQAGGSLRLSCAASGFIFTGYTMGWYRQAPGKERELVARISSGDSTKYADSVKGRFTISRDNAKNNVYLQMNSLKPEDTAVYYCAAYIRNARNGTTYDYWGQGTQVTVSS", "polyreactivity (PSR sort gate)": "high polyreactivity"}, {"sequence": "QVQLVESGGGLVQAGGSLRLSCAASGFIFTHYAMGWYRQAPGKERELVAAISRRGGSTYYADSVKGRFTISRDNAKNTVYLQMNSLKPEDTAVYYCAADNYDAWYWDYYWGQGTQVTVSS", "polyreactivity (PSR sort gate)": "high polyreactivity"}, {"sequence": "QVQLVESGGGLVQAGGSLRLSCAASGFIFTKYAMGWYRQAPGKERELVAVITSRGTRTYYADSVKGRFTISRDNAKNTVYLQMNSLKPEDTAVYYCAADYQGPYDYWGQGTQVTVSS", "polyreactivity (PSR sort gate)": "high polyreactivity"}, {"sequence": "QVQLVESGGGLVQAGGSLRLSCAASGFIFTNVMGWYRQAPGKERELVAAISGRGTSTYYADSVKGRFTISRDNAKNTVYLQMNSLKPEETAVYYCAAASYQSRYWNYYWGQGTQVTVSS", "polyreactivity (PSR sort gate)": "high polyreactivity"}, {"sequence": "QVQLVESGGGLVQAGGSLRLSCAASGFIFTPYAMGWYRQAPGKEREFVATITWSGGSTNYADSVKGRFTISRDNAKNTVYLQMNSLKPEDTAVYYCNADTWSPNDYWGQGTQVTVSS", "polyreactivity (PSR sort gate)": "low polyreactivity"}, {"sequence": "QVQLVESGGGLVQAGGSLRLSCAASGFIFTPYAMGWYRQAPGKERELVAAISKSGADTFYADSVKGRFTISRDNAKNTVYLQMNSLKPEDTAVYYCAADDYWGYDYWGQGTQVTVSS", "polyreactivity (PSR sort gate)": "high polyreactivity"}, {"sequence": "QVQLVESGGGLVQAGGSLRLSCAASGFIFTPYAMGWYRQAPGKERELVAAISWIGGRTYYADSVKGRFTISRDNAKNTVYLQMHSLKPEDTAVYYCNARTHGWPYSRYYYWGQGTQVTVSS", "polyreactivity (PSR sort gate)": "high polyreactivity"}, {"sequence": "QVQLVESGGGLVQAGGSLRLSCAASGFIFTQNAMGWYRQAPGKERELVAVIRWNGGSTYYADSVKGRFTISRDNAKNTVYLQMNSLKPEDTEVYYCAAEFLWIVDYWGQGTQVTVSS", "polyreactivity (PSR sort gate)": "low polyreactivity"}, {"sequence": "QVQLVESGGGLVQAGGSLRLSCAASGFIFTRNAMGWYRQAPGKERELVAAITSSGGSTYYADSVKGRFTISRDNAKYTVYLQMNCLKPEDTAVYYFAADDIQTYGDDYWGQGTQVTVSS", "polyreactivity (PSR sort gate)": "high polyreactivity"}, {"sequence": "QVQLVESGGGLVQAGGSLRLSCAASGFIFTRNVMGWNRQAPGKERELVAAISSGGRTYYADSVKGRFTISRDNAKKTVYFQMISLKPEDTAVYYCNAGNRGVYRYDYWGQGTQVTVSS", "polyreactivity (PSR sort gate)": "high polyreactivity"}, {"sequence": "QVQLVESGGGLVQAGGSLRLSCAASGFIFTSNAMGWYRQAPGKERELVAAITKSGGSTYYADSVKGRFTISRDNAKNTVYLQMNSLKPEDTAVYYCATRGVRRYYKTMNYWGQGTQVTVSS", "polyreactivity (PSR sort gate)": "high polyreactivity"}, {"sequence": "QVQLVESGGGLVQAGGSLRLSCAASGFIFTSYALGWYRQAPGKEREFFAAISRRGGSTYYADSVKGRFTISRDNAKNTVYLQMNSLKPEDTAVYYCAADPKQHSGYDYWGQGTQVTVSS", "polyreactivity (PSR sort gate)": "high polyreactivity"}, {"sequence": "QVQLVESGGGLVQAGGSLRLSCAASGFIFTSYAMGWYRQAPGKERELVAAITDGGSTNYADSVKGRFTISRDNAKNTVYLQMNSLKPEDTAVFYCAADGFKTVLPEYDYWGQGTQVTVSS", "polyreactivity (PSR sort gate)": "low polyreactivity"}, {"sequence": "QVQLVESGGGLVQAGGSLRLSCAASGFIFTSYDMGWYRQAPWKEREFVAAISWSGDRTYYADSVKGRFTISRDYAKNTVYLQMNSLKPEDTAVYYCAADRSIRRYYGYDYWGQGTQVTVSS", "polyreactivity (PSR sort gate)": "high polyreactivity"}, {"sequence": "QVQLVESGGGLVQAGGSLRLSCAASGFIFTTNAMGWYRQAPGKERELVAAITRSGGSTYADSVKGRFTLSRDNAKNTVYLQMNSLKPEETAVYYCNADGYFWGQGTQVTVSS", "polyreactivity (PSR sort gate)": "low polyreactivity"}, {"sequence": "QVQLVESGGGLVQAGGSLRLSCAASGFIFTVNAMGWYRQAPGKERELVAAITQSGGNTSYADSVKGRFTISRDNAKNTVYLQMNSLKPEDTAVYYCNASSDTSRYGVSTYYYWGQGTQVTVSS", "polyreactivity (PSR sort gate)": "low polyreactivity"}]}]}
